Test results as given in paper PMC3446948, “Protection against Th17 Cells Differentiation by an Interleukin-23 Receptor Cytokine-Binding Homology Region” (PLoS ONE, 2012).

Experiments:
Human IL-23 = target: T1, Human IL-23 (human, UniProt Q9NPF7 20-189; P29460 23-328); experiment: ELISA; direct binding ELISA: 10 ng/well human IL-23 coated, various concentrations of IL23R-CHR added, bound IL23R-CHR detected by HRP-labelled IL23R mAb; non-linear regression; settings: both partners purified
T1 construct: Interleukin-23 subunit alpha (p19), human; subunit of the bought heterodimeric cytokine; Interleukin-12 subunit beta (p40), human; also called human IL-23 complex; source: bought: R&D
T1 sequence (looked up) 1: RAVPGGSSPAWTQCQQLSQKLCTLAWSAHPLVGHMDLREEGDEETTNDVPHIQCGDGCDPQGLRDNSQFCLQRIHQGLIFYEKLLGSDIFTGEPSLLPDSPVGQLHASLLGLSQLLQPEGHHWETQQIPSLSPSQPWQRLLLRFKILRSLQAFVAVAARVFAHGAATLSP
T1 sequence (looked up) 2: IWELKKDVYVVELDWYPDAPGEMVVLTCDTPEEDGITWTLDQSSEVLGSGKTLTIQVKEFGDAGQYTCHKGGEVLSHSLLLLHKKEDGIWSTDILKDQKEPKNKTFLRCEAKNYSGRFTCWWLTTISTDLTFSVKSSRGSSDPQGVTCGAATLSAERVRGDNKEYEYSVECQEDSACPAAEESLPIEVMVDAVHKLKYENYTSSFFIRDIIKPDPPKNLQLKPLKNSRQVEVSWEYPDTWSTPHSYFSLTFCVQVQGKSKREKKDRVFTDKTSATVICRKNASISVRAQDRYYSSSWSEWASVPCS

Mouse IL-23 (mouse) = Mouse IL-23 (mouse) (UniProt Q9EQ14)
Chain of Mouse IL-23 (mouse) (Q9EQ14 22-196, chain 1 of 2): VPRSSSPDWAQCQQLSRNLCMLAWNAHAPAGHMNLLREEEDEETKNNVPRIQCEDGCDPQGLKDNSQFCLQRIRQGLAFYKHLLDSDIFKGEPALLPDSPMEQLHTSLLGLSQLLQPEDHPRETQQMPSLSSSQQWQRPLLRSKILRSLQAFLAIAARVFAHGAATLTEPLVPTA
Chain of Mouse IL-23 (mouse) (P43432 23-335, chain 2 of 2, further chain): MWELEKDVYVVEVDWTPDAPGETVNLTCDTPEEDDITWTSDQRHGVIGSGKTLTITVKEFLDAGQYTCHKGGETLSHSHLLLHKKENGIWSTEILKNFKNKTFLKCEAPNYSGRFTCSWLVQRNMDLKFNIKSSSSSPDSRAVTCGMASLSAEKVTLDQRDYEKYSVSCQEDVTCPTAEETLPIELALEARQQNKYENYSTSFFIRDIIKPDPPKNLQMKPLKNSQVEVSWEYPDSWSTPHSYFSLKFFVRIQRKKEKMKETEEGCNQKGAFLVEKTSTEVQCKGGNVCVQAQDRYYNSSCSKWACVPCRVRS

IC50 (Human IL-23): 90 nM | percentage of IL-17a+ cells in mouse CD4+ T cells (flow cytometry) under Th17 polarisation with IL23R-CHR 0, 5 and 25 ug/ml, 72 h; the value given is that at 25 ug/ml (Mouse IL-23 (mouse)): 4.18%
B1: Human IL-23 receptor cytokine-binding homology region (IL23R-CHR, amino acid residues 124-313) (domain or fragment)
chain: PPDIPDEVTCVIYEYSGNMTCTWNAGKLTYIDTKYVVHVKSLETEEEQQYLTSSYINISTDSLQGGKKYLVWVQAANALGMEESKQLQIHLDDIVIPSAAVISRAETINATVPKTIIYWDSQTTIEKVSCEMRYKATTNQTWNVKEFDTNFTYVQQSEFYLEPNIKYVFQVRCQETGKRYWQPWSSLFFH
modifications: Expressed in E. coli (non-glycosylated). The Trx-His6 tag was removed by enterokinase. A short vector/primer-derived N-terminal remnant remains and is omitted: printed as 'A', while the NcoI primer …
